B1: 6D12B10: rat monoclonal antibody against the β6/β7 loop of SOD1, raised with KLH-conjugated SE-21 peptide (antibody, V domains shown)
VH: QIQLVQSGPELKKPGESVSISCKASGYTFTDSAIHWVKQAPGKGLKYMGWINTYTGKPTYADDFKGRFVFSLEASASTAKLQISNLKSEDTATFFCARSVYSYDGTFYRYFLDAWGQGASVTVSS
VL: DTVLTQSPALAVSPGEKVTISCRASESVSKHIHWFQQKSGQQPTLLIYLASSLESGVPARFSGSGSGTDFTLTIDPVEADDTATYYCQQSWNDPWTFGGGTKLELK
B2: scFv-Ab: single-chain fragment variable antibody: heavy and light chain variable regions of the anti-β6/β7-loop mAb joined by a flexible linker (protein)
scFv: QIQLVQSGPELKKPGESVSISCKASGYTFTDSAIHWVKQAPGKGLKYMGWINTYTGKPTYADDFKGRFVFSLEASASTAKLQISNLKSEDTATFFCARSVYSYDGTFYRYFLDAWGQGASVTVSSGGGGSGGGGSGGGGSDTVLTQSPALAVSPGEKVTISCRASESVSKHIHWFQQKSGQQPTLLIYLASSLESGVPARFSGSGSGTDFTLTIDPVEADDTATYYCQQSWNDPWTFGGGTKLELKGGGGS
modifications: left off: small tags and cut ends
notes: single-chain fragment variable antibody: heavy and light chain variable regions of the anti-β6/β7-loop mAb joined by a flexible linker

Tests used:
Format in all cases: binding
apo-SOD1^WT = apo-SOD1^WT (Homo sapiens, UniProt P00441); test: ELISA of hybridoma supernatants with SOD1 variants as coating antigens; conditions: WT in the absence of Cu2+ and Zn2+, similar to SOD1^G93A and SOD1^G85R
Text: (§1) FIGS. 1A-1B are an image and a graph showing (1A) the surface pocket shaped by the two β6/β7 loops (arrows) in the intact SOD1^WT dimer, and (1B) the results of enzyme linked immunosorbent assay (ELISA) of supernatants of several hybridoma clones expressing anti-β6/β7-loop monoclonal antibody (mAb) using SOD1 variants as coating antigens. NC—negative control. WT—wild type; apo—WT in the absence of metals (Cu^2+ and Zn^2+); holo—WT in the presence of metals (Cu^2+ and Zn^2+); G93A—Glycine at position 93 was substituted to Alanine; G85R—Glycine at position 85 was substituted to Arginine; antigen peptide—peptide used to produce the disclosed mAb.
(§2) The loss of stabilizing metals, especially Zn^2+ is considered as the primary event which triggers the noxious structural transformation of SOD1, ultimately resulting in amyloid aggregation. Therefore, it is possible that the exposure of the β6/β7 loop epitope represents an early manifestation of the SOD1 noxious misfolding, and it is a common feature for both SOD1^WT and fALS SOD1^MUT. This early β6/β7 loop epitope is fundamentally different from the late epitopes of misfolded SOD1 such as those exposed on the dimer interface upon SOD1 monomerization; they correspond to the advanced stages of SOD1 misfolding and are apparently irreversible.

holo-SOD1^WT = holo-SOD1^WT (Homo sapiens, UniProt P00441); test: as above; conditions: apo-SOD1^WT saturated with Cu2+ and Zn2+ by dialysis
Text: as §1, §2

[1] = system: misfolded familial ALS (fALS) mutants of SOD1 (SOD1^G93A and SOD1^G85R); test: as above; conditions: FIG. 1B, SOD1^G93A and SOD1^G85R vs intact SOD1^WT
Text: as §1, §2

[2] = system: misfolded SOD1 variants (apo-SOD1^WT, holo-SOD1^WT, apo-SOD1^G93A, apo-SOD1^G85R); test: ELISA of secreted scFv-Ab (supernatant of transfected HEK 293 cells) on SOD1 variants; conditions: FIG. 2, HEK 293 supernatant, anti-c-myc detection
Text: Binding of secreted scFv-Ab (as supernatant of HEK 293 cells transfected with the vector expressing scFv-Ab) to SOD1 variant (apo-SOD1^WT, holo-SOD1^WT, apo-SOD1^G93A, and apo-SOD1^G85R), was quantified by enzyme-linked immunosorbent assay (ELISA).
The inventors have constructed a single-chain fragment variable antibody (scFv-mAb), representing a hybrid protein that comprises both heavy and light chain variable Ig regions of the anti-β6/β7-loop mAb connected by a short flexible linker (linker length 15-20 amino acids). The advantages of single-chain antibody are its small size, low immunogenicity and increased half-life (due to the reduced clearance via Fc-mediated microglia phagocytosis), and the ability to be used in a gene delivery system, such as recombinant adeno-associated virus, AAV6, for intra- or extracellular expression. AAV vectors have a broad cell type tropism, provide stable and safe gene expression and minimize immune response. […] Recent advances in AAV vector engineering enabled these vectors (AAV9) to be injected directly IV to obtain efficient CNS expression DNA sequences encoding the scFv-Ab of the invention were further optimized in terms of the codon usage for expression in mammalian cells (e.g., murine). […]

Sequence of apo-SOD1^WT (P00441 2-154 limits assumed): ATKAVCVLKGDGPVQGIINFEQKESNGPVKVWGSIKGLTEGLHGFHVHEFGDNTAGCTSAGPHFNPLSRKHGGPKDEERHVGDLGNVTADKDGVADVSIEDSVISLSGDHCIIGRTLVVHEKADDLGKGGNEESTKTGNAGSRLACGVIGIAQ
Sequence of holo-SOD1^WT (P00441 2-154 limits assumed): as above

Molecule	recognition of metal-free apo-SOD1^WT (apo-SOD1^WT)	mAb binding to holo-SOD1^WT (holo-SOD1^WT)	discrimination between the intact SOD1^WT and misfolded fALS mutants of SOD1 [1]	binding of scFv-Ab to SOD1 variants [2]
B1	recognized metal-free apo-SOD1^WT as misfolded protein	completely abolished mAbs binding	complete discrimination	
B2				selectively recognizes misfolded SOD1 variants
